Five molecules from PMC7668070 (Proceedings of the National Academy of Sciences of the …, 2020) can be followed below.

The target of the experiment is SARS-CoV-2 spike RBD monomer (328-533), 8XHis tag, AviTag, biotinylated (SARS-CoV-2). Nature of the experiment: flow cytometry on cells. Conditions: one partner purified. For orientation: Flow cytometry measures light scatter and fluorescence of single cells or particles in a stream.

B1: K31F/N33D/H34A/E35Q/N49D/N51S/N53S/E57G/N64D ACE2(614), Aga2p-GFP construct Y354, displayed on yeast (designed binder)
chain: QSTIEEQAKTFLDFFDAQAEDLFYQSSLASWDYSTSITEGNVQNMNDAGDKWSAFLKEQSTLAQMYPLQEIQNLTVKLQLQALQQNGSSVLSEDKSKRLNTILNTMSTIYSTGKVCNPDNPQECLLLEPGLNEIMANSLDYNERLWAWESWRSEVGKQLRPLYEEYVVLKNEMARANHYEDYGDYWRGDYEVNGVDGYDYSRGQLIEDVEHTFEEIKPLYEHLHAYVRAKLMNAYPSYISPIGCLPAHLLGDMWGRFWTNLYSLTVPFGQKPNIDVTDAMVDQAWDAQRIFKEAEKFFVSVGLPNMTQGFWENSMLTDPGNVQKAVCHPTAWDLGKGDFRILMCTKVTMDDFLTAHHEMGHIQYDMAYAAQPFLLRNGANEGFHEAVGEIMSLSAATPKHLKSIGLLSPDFQEDNETEINFLLKQALTIVGTLPFTYMLEKWRWMVFKGEIPKDQWMKKWWEMKREIVGVVEPVPHDETYCDPASLFHVSNDYSFIRYYTRTLYQFQFQEALCQAAKHEGPLHKCDISNSTEAGQKLFNMLRLGKSEPWTLALENVVGAKNMNVRPLLNYFEPLFTWLKDQNKNSFVGWSTDWSPYA
Regarding B1, the equilibrium dissociation constant (Kd) was determined as 0.45 nM.

B2: K31F/H34I/E35Q ACE2(614), Aga2p-GFP construct Y293, displayed on yeast (designed binder)
chain: QSTIEEQAKTFLDFFNIQAEDLFYQSSLASWNYNTNITEENVQNMNNAGDKWSAFLKEQSTLAQMYPLQEIQNLTVKLQLQALQQNGSSVLSEDKSKRLNTILNTMSTIYSTGKVCNPDNPQECLLLEPGLNEIMANSLDYNERLWAWESWRSEVGKQLRPLYEEYVVLKNEMARANHYEDYGDYWRGDYEVNGVDGYDYSRGQLIEDVEHTFEEIKPLYEHLHAYVRAKLMNAYPSYISPIGCLPAHLLGDMWGRFWTNLYSLTVPFGQKPNIDVTDAMVDQAWDAQRIFKEAEKFFVSVGLPNMTQGFWENSMLTDPGNVQKAVCHPTAWDLGKGDFRILMCTKVTMDDFLTAHHEMGHIQYDMAYAAQPFLLRNGANEGFHEAVGEIMSLSAATPKHLKSIGLLSPDFQEDNETEINFLLKQALTIVGTLPFTYMLEKWRWMVFKGEIPKDQWMKKWWEMKREIVGVVEPVPHDETYCDPASLFHVSNDYSFIRYYTRTLYQFQFQEALCQAAKHEGPLHKCDISNSTEAGQKLFNMLRLGKSEPWTLALENVVGAKNMNVRPLLNYFEPLFTWLKDQNKNSFVGWSTDWSPYA
Molecule B2 yielded a dissociation constant (Kd) of 1.71 nM.

B3: S19P/N33S/H34V/F40L/N49D/L100P ACE2(614), Aga2p-GFP construct Y375, displayed on yeast (designed binder)
chain: QPTIEEQAKTFLDKFSVEAEDLLYQSSLASWDYNTNITEENVQNMNNAGDKWSAFLKEQSTLAQMYPLQEIQNLTVKLQLQAPQQNGSSVLSEDKSKRLNTILNTMSTIYSTGKVCNPDNPQECLLLEPGLNEIMANSLDYNERLWAWESWRSEVGKQLRPLYEEYVVLKNEMARANHYEDYGDYWRGDYEVNGVDGYDYSRGQLIEDVEHTFEEIKPLYEHLHAYVRAKLMNAYPSYISPIGCLPAHLLGDMWGRFWTNLYSLTVPFGQKPNIDVTDAMVDQAWDAQRIFKEAEKFFVSVGLPNMTQGFWENSMLTDPGNVQKAVCHPTAWDLGKGDFRILMCTKVTMDDFLTAHHEMGHIQYDMAYAAQPFLLRNGANEGFHEAVGEIMSLSAATPKHLKSIGLLSPDFQEDNETEINFLLKQALTIVGTLPFTYMLEKWRWMVFKGEIPKDQWMKKWWEMKREIVGVVEPVPHDETYCDPASLFHVSNDYSFIRYYTRTLYQFQFQEALCQAAKHEGPLHKCDISNSTEAGQKLFNMLRLGKSEPWTLALENVVGAKNMNVRPLLNYFEPLFTWLKDQNKNSFVGWSTDWSPYA
Turning to B3, the Kd came to 0.61 nM.

B4: K31Y/W69V/L79T/L91P ACE2(614), Aga2p-GFP construct Y311, displayed on yeast (designed binder)
chain: QSTIEEQAKTFLDYFNHEAEDLFYQSSLASWNYNTNITEENVQNMNNAGDKVSAFLKEQSTTAQMYPLQEIQNPTVKLQLQALQQNGSSVLSEDKSKRLNTILNTMSTIYSTGKVCNPDNPQECLLLEPGLNEIMANSLDYNERLWAWESWRSEVGKQLRPLYEEYVVLKNEMARANHYEDYGDYWRGDYEVNGVDGYDYSRGQLIEDVEHTFEEIKPLYEHLHAYVRAKLMNAYPSYISPIGCLPAHLLGDMWGRFWTNLYSLTVPFGQKPNIDVTDAMVDQAWDAQRIFKEAEKFFVSVGLPNMTQGFWENSMLTDPGNVQKAVCHPTAWDLGKGDFRILMCTKVTMDDFLTAHHEMGHIQYDMAYAAQPFLLRNGANEGFHEAVGEIMSLSAATPKHLKSIGLLSPDFQEDNETEINFLLKQALTIVGTLPFTYMLEKWRWMVFKGEIPKDQWMKKWWEMKREIVGVVEPVPHDETYCDPASLFHVSNDYSFIRYYTRTLYQFQFQEALCQAAKHEGPLHKCDISNSTEAGQKLFNMLRLGKSEPWTLALENVVGAKNMNVRPLLNYFEPLFTWLKDQNKNSFVGWSTDWSPYA
In turn, B4 came in with a Kd of 0.64 nM.

B5: S19P/Q42L/L79T/N90Q ACE2(614), Aga2p-GFP construct Y355, displayed on yeast (designed binder)
chain: QPTIEEQAKTFLDKFNHEAEDLFYLSSLASWNYNTNITEENVQNMNNAGDKWSAFLKEQSTTAQMYPLQEIQQLTVKLQLQALQQNGSSVLSEDKSKRLNTILNTMSTIYSTGKVCNPDNPQECLLLEPGLNEIMANSLDYNERLWAWESWRSEVGKQLRPLYEEYVVLKNEMARANHYEDYGDYWRGDYEVNGVDGYDYSRGQLIEDVEHTFEEIKPLYEHLHAYVRAKLMNAYPSYISPIGCLPAHLLGDMWGRFWTNLYSLTVPFGQKPNIDVTDAMVDQAWDAQRIFKEAEKFFVSVGLPNMTQGFWENSMLTDPGNVQKAVCHPTAWDLGKGDFRILMCTKVTMDDFLTAHHEMGHIQYDMAYAAQPFLLRNGANEGFHEAVGEIMSLSAATPKHLKSIGLLSPDFQEDNETEINFLLKQALTIVGTLPFTYMLEKWRWMVFKGEIPKDQWMKKWWEMKREIVGVVEPVPHDETYCDPASLFHVSNDYSFIRYYTRTLYQFQFQEALCQAAKHEGPLHKCDISNSTEAGQKLFNMLRLGKSEPWTLALENVVGAKNMNVRPLLNYFEPLFTWLKDQNKNSFVGWSTDWSPYA
B5 yielded a Kd of 0.94 nM.

Broadly, the Kd is the free concentration of one partner at which half of the binding sites on the other are occupied at equilibrium, for simple one-to-one binding.
